The target of this assay is biotinylated gp41 MPER peptide RRR-(656-683)-RRK-biotin (HIV-1). In words: SPR: biotinylated MPER peptide on an SA chip, Fab as analyte, 1:1 Langmuir fit.

As a reminder, the Kd is the free concentration of one partner at which half of the binding sites on the other are occupied at equilibrium, for simple one-to-one binding. A lower Kd goes with higher affinity.

The substance 2F5 Fab came in with a Kd of 3.8 nM. 4E10 Fab registered a Kd of 0.74 nM.

These data come from patent US20140348785A1.
